In article doi:10.1101/2025.03.19.644124:

Legend:
Experiment in all cases: BLI
[1] = target: 6His-PpBRCA2-Cter (amino acids 251 to 391) (Physcomitrium patens)
[2] = target: biotinylated PpBRCA2-BRC4 peptide (Physcomitrium patens)
[3] = target: biotinylated PpBRCA2-BRC1 peptide (Physcomitrium patens)
[4] = target: biotinylated PpBRCA2-BRC2 peptide (Physcomitrium patens)

Kd [1]: 4.3 nM | Kd [2]: 400 nM | Kd [3]: 400 nM | Kd [4]: 800 nM
Substance: recombinant PpRAD51-2, tag-free (natural protein)
